Test: yeast display, Sf9 membrane polyspecificity reagent, FACS + sequencing; frameworks hold sequencing errors
Procedure, shortened: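 Polyreactivity labels are assigned by the sorting gate from which each nanobody was recovered. The gates were low and high (top ~1%), set on anti-HA fluorescence for expression and streptavidin fluorescence for reagent binding. Before sorting, galactose-induced (36–48 hours) yeast display cells were stained for 1 hour at 4 °C with 10% biotinylated, detergent-solubilized Sf9 membrane reagent.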

Sequence | polyreactivity (PSR sort gate)
QVQLVESGGGLVQAGGSLRLSCAASGSIFGYNTMGWYRQAPGKERELVAAISYSGGRTYYADSVKGRFTISRDNAKNTVYVQMNSLKPEDTAVYYCAADFYFRRGTDYDYWGQGTQVTVSS | high polyreactivity
QVQLVESGGGLVQAGGSLRLSCAASGSIFGYYALGWYRQAPGKERELVAAISRSGGSTYYADSVKGRFTISRDNAKNTVYLQMNSLKPEDTAVYYCAADDYPYGNYYWGQGTQVTVSS | high polyreactivity
QVQLVESGGGLVQAGGSLRLSCAASGSIFGYYAMGGYIQAPGYERELVAAISYSGGSTYYADSVKGRFTISRDHAKNTVYLQMNSLKPEDTAVYYCAAVRRRTRYGYRYDYWGQGTQVTVSS | high polyreactivity
QVQLVESGGGLVQAGGSLRLSCAASGSIFGYYAMGWYRLAPGKERELVAAINWRGTSTYYADSVKGRFTISRDNAKNTVYLQMISLKPEDTAVYYCAARRSVGGYGYWGQGTQVTVSS | high polyreactivity
QVQLVESGGGLVQAGGSLRLSCAASGSIFGYYAMGWYRQAPGKERELVAAIRWSDGSTYYADSVKGRFTISRDNAKNTVYLQMNSLKPEDTAVYYCAAETGWLYDYWGQGTQVTVSS | high polyreactivity
QVQLVESGGGLVQAGGSLRLSCAASGSIFGYYAMGWYRQAPGKERELVAAISGSGGSTYYADSVKGRFTISRDYAKNTVYLQMNSLKPEDTAVYYCAARWQWLNGYYYWGQGTHVTVSS | high polyreactivity
QVQLVESGGGLVQAGGSLRLSCAASGSIFGYYAMGWYRQAPGKERELVAAISRGGRTNYADSVKGRFTISRDNAKNTVYLQMNSLKPEDTAVYYCAAESYRAYKYDYWGQGTQVTVSS | low polyreactivity
QVQLVESGGGLVQAGGSLRLSCAASGSIFGYYAMGWYRQAPGKERELVAAITRSGGRTYYADSVKGRFTISRDNAKNTVYLQMNSQKPEDTAVYYCATEWLKDRYPYGYWGQGTQVTVSS | high polyreactivity
QVQLVESGGGLVQAGGSLRLSCAASGSIFGYYAMGWYRQAPGKERELVAVITSGATTNYADSVKGRFTISRDNAKNTVYLQMNSLKPEDTAVYYCAARPQVKRGRYGYWGQGTQVTVSS | low polyreactivity
QVQLVESGGGLVQAGGSLRLSCAASGSIFGYYAMGWYRQARGNERELGAAIRSTGSTNYADSVKGRFTISRDNAQNTVYLQMNSLKPEDTAVYYCAAGDITGGSGNWVVTPYDYGGQGTQVTVSS | high polyreactivity
QVQLVESGGGLVQAGGSLRLSCAASGSIFGYYTMGWYRQAPGKERELVAAITSGGSTHYADSVKGRFTISRDNAKKTGYLQMNSLKPEDTAVYYCAKVSYYPWRYDYWGQGTQVTVSS | low polyreactivity
QVQLVESGGGLVQAGGSLRLSCAASGSIFGYYVMGWYRQAPGKERELVAAISRSGGSTYYADSVKGRFTISRDHAKNTVYLQMNSLKPEDTAVYYCAARGTAERDYWGQGTQVTVSS | high polyreactivity
QVQLVESGGGLVQAGGSLRLSCAASGSIFHDNAMGWYRQAPGKERELVAAITTSGGNTYYADSVKGRFTISRDNAKNTVYLQMNSLKPEDTAVYYCAADTLGKYDYWGQGTQVTVSS | low polyreactivity
QVQLVESGGGLVQAGGSLRLSCAASGSIFHGYAMRWYRQAPGKERELVAAISRNGGGTYYADSVKGRFTISRDNAKNTVYLQMNSLKPEDTAVYYCAVVRYSSRYDYWGQGTQVTVSS | high polyreactivity
QVQLVESGGGLVQAGGSLRLSCAASGSIFHIYAMGWYRQAPGKERELVAAISSGGRTNYADSVKGRFTISRDNAKNTVYLQMNSLKPEDTAVYYCAADWIYLPTRNYRVRVDYWGQGTQVTVSS | high polyreactivity
QVQLVESGGGLVQAGGSLRLSCAASGSIFHKNAMGWYRPAPGNERELVATITSDGSTNYADSVKGRFTISRDNEKNTVYLQMNSLKPEDTAVYDCAAYSQVGGYDYWGQGTQVTVSS | low polyreactivity
QVQLVESGGGLVQAGGSLRLSCAASGSIFHPYAMGWYRQAPGKEREFVAAITFRGSTYFADSVKGRFTISRDNAKITVYLQMNSLKPEDTAVYYCAARYHIFRRGSRNYDYWGQGTQVTVSS | high polyreactivity
QVQLVESGGGLVQAGGSLRLSCAASGSIFHTYAMGWYRQAPGKERELVAAISGIGGSTYYADSVKGRFTISRDNAKNTVYLQMNSLKPEDTAVYYCAVELYWYPGYDYWGQGTQVTVSS | low polyreactivity
QVQLVESGGGLVQAGGSLRLSCAASGSIFHTYAMGWYRQAPGKERELVAAITVSGGDTYYADSVKGRFTISRDNAKNTGYLQMNSLKPEDTAVYYCAKRIFDTFDSWGQGTQVTVSS | low polyreactivity
QVQLVESGGGLVQAGGSLRLSCAASGSIFHTYTMGWYRQAPGKERELVAAITRSGGTTYYADSVKGRFTISRDNAKNTVYLQMNSLKPEDTAVYYCAATHPGAVSFRYYYWGQGTQVTVSS | high polyreactivity
QVQLVESGGGLVQAGGSLRLSCAASGSIFHYYAMGWYRQAPGKERELVADITSGGSTNYADSVKGRFTISRDNAKNTVYVQMNSLKQEDTAVYYCNASFQSWLVRVPGDYWGQGTQVTVSS | low polyreactivity
QVQLVESGGGLVQAGGSLRLSCAASGSIFHYYAMGWYRQATGKERELVAAISTSGGSTYYADSVKGRFTISRDNAKNTVYLQMNSLKPEDTAVYYCNAVYYYFPVGDDEYWGQGTQVTVSS | high polyreactivity

Sequence | polyreactivity (PSR sort gate)
QVQLVESGGGLVQAGGSLRLSCAASGSIFIFNAMGWYRQAPGKEREFVARIRRDSSTNYADSVKGRFTISRDNAKNTVYLQMNSLKPEDTAVYYCAAKRFYRRVELNSWGQGTQVTVSS | low polyreactivity
QVQLVESGGGLVQAGGSLRLSCAASGSIFIGYAMGWYRQAHGKERELVAAITSGGSTYADSVKGRFTISRDNAKNPVYLQMNSLKPEDSAVYYCAARFFLVTLDYWGQGTQVTVSS | low polyreactivity
QVQLVESGGGLVQAGGSLRLSCAASGSIFIGYAMGWYRQSPGKERELVAAINDSGDRTYYADSVKGRFTISRDNAKNTVYLQMNSLKPEDTAVYYCAADLVSLDPEYDYWGQGTQVTVSS | low polyreactivity
QVQLVESGGGLVQAGGSLRLSCAASGSIFIQNGMGWYRQAPGKERELVASSASGGSTNYADSVKGRYTISRDNAKNTVYVQMNSLKPEDTAVYYCAARVWYSSDGSTYPYTRYDYWGQGTQVTVSS | high polyreactivity
QVQLVESGGGLVQAGGSLRLSCAASGSIFIRYAMGWSRQAPGTEREWVAAITSTGSTSYADSVNGRFTISRDNAKNTVYLQMNRLTPEDTAVYYCAKEASLVQGVIGGYPYDSWGQGTQVTVSS | low polyreactivity
QVQLVESGGGLVQAGGSLRLSCAASGSIFISSDRRLDRQAPGKERALVAAMRSRVGSTYYADSVKGRFTISRENGKNSDYFQMNSLKPEDTAVYYCKKDNAVDRRPWFQVTYVYWVQGTQVTVSS | low polyreactivity
QVQLVESGGGLVQAGGSLRLSCAASGSIFISYAMGWYRQAPGKERELVAAISSGGSTNYADSVKGRFTISRDNAKNTVYLQMNSLKPEATAVYYCAADGWLWSFTGDGWWFDYWGQGTQVTVSS | low polyreactivity
QVQLVESGGGLVQAGGSLRLSCAASGSIFISYDIGWYRHAPGKETELVAAIRSRVGSTYYADSVKGRFTISRDNAKNTVYLQMKSLKPEDTAVYYCNKDNAVDRLPWFQVTYEYWGQGTQVTVSS | low polyreactivity
QVQLVESGGGLVQAGGSLRLSCAASGSIFISYNMGWYGQAPGKERELVAANNYNGGRTNYADSVKGRFTISRDKAKNTVYLQINSLKPEDTAVYYCNAAYSYSIYDYWGQGTQVTVSS | low polyreactivity
QVQLVESGGGLVQAGGSLRLSCAASGSIFISYVMGWYRQAPAKERELVASISWSGGSTYYADSVKGRFTISRDNAKNTVYLQMNSLKPEDTAVYYCAADRLVRIRSYRDLGYWGQGTQVTVSS | high polyreactivity
QVQLVESGGGLVQAGGSLRLSCAASGSIFITNAMGWYRQAPGKERELVAAISGRGGSTYSADSVKGRFTISRDNAKNTVYLQMNSLKPEDTAVYYCNAYSYRVSGYDYWGQGTQVTVSS | high polyreactivity
QVQLVESGGGLVQAGGSLRLSCAASGSIFITYAMGWYRQAPGKERELVAAIRDSGDRTYYADSVKGRFTISRDNEKNTVYLQMNSLKPEDTAVYYCNARWQEPLKYDYWGQGTQVTVSS | low polyreactivity
QVQLVESGGGLVQAGGSLRLSCAASGSIFIVNAMGWYRQAPGKERELVATITSDVDTNYADSVKGRFTISRDNAKNTVYLQMNSLKPEDTAVYYCAKESTKIYRVVEMDYWGQGTQVTVSS | low polyreactivity
QVQLVESGGGLVQAGGSLRLSCAASGSIFIVYAMGWYRQAPGKERELVATISWSGGSTSYADSVKGRFTISRDNAKNTVYLQMNSLKPEDTAVYYCNTLVRITEYDSWGQGTQVTVSS | low polyreactivity
QVQLVESGGGLVQAGGSLRLSCAASGSIFIVYAMGWYRQAPGKERELVATISWSGGSTSYADSVKGRFTNSRDNAKNTVYLQMNSLKPEDTAFYYCNTLVRITEYDSWGQGTQVTVSS | low polyreactivity
QVQLVESGGGLVQAGGSLRLSCAASGSIFIYNAMGWYRQAPGKERELVAAISSSGGSTYYADSVKGRFTISRDNAKNTVYLQMNSLKPEDTAVYYCAARTYYVRVLGGRPGMDYWGQGTQVTVSS | low polyreactivity
QVQLVESGGGLVQAGGSLRLSCAASGSIFIYNAMGWYRQAPGKERELVAAISSSGGSTYYADSVKGRITISRDNAKNTVYLQMNSLKPEPTAVYYCAARTYYVRGLGGRPGMDYCGQGTQVTVSS | low polyreactivity
QVQLVESGGGLVQAGGSLRLSCAASGSIFIYNAMGWYRQGPGKERELVAAISSSGGSTYYADSVKGRFTISRDNAKNTVYLQMNSLNPEDTAVYYCAARTYYVRGLGGRPGMDYWGPGTQVTVSS | low polyreactivity
QVQLVESGGGLVQAGGSLRLSCAASGSIFIYYAMGWYRQAPGKERELVASISSSGSRTYYADSVKGRFTISRDNAKNTVYLQMNSLKPEETAVYYCAARYAIPRNYPQYNYWGQGTQVTVSS | high polyreactivity
QVQLVESGGGLVQAGGSLRLSCAASGSIFIYYAMGWYRQAPGKERELVATISSDDRTNYTDSVKGRFTISRDNAKNTVYLQMNSLKPEDTAVYYCAADRYWAGRDGPEYDYWGQGTQVTVSS | low polyreactivity
QVQLVESGGGLVQAGGSLRLSCAASGSIFIYYAMGWYRQAPGKQRELVAGINFNGGSTYYADSVKGRFTISRDNAMYTVYVQMNSLKPEDTAVYYCAADELWWTYWDFVTNWYQRDYWGQGTQVTVSS | low polyreactivity
